Changes are numbered by the printed parent chain.
Experiments:
[1] = target: T1, TOM20-Human 胞质结构域蛋白(25-145) (human, UniProt Q15388 25-145); experiment: phage clone ELISA, crude phage nanobody extract on coated TOM20 against BSA control
T1 construct: range 25-145; A purification tag (Ni column) is implied but not described; also called TOM20胞质结构域
T1 sequence (looked up): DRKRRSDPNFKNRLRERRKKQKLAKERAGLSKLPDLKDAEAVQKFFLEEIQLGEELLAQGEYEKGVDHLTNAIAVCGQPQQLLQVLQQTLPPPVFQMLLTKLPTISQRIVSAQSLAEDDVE

[2] = target: T1, TOM20-Human 胞质结构域蛋白(25-145); experiment: SPR (Biacore), antigen immobilised on chip, nanobody as analyte
TOM20-Mouse 胞质结构域 = target: T2, TOM20-Mouse 胞质结构域 (mouse, UniProt Q9DCC8 25-145); experiment: as above
T2 construct: domain: 胞质结构域; also called TOM20(鼠)胞质结构域
T2 sequence (looked up): T1 sequence (looked up) with E61D

B1: P2B7号纳米抗体 (VHH)
VHH: AVQLVESGGGLVQAGGSLRLSCVASGSTFSNFVMGWYRQAPGKQRVLVATISSGGSTNYADSVKGRFTISRDNTKNTVYLQMNSLKPEDTSVYYCNARRGSVIVPTLAYDYWGQGTQVTVSS
notes: Alpaca naive-library nanobody expressed in E. coli with an HA tag for detection and purified on Ni resin; also called P2B7纳米抗体; TOM20纳米抗体; not shown: fused HA tag and vector-derived His tag (PET-14B or PET28a-sumo)
- TOM20/BSA ratio [1]: ~3 fold
- Kd [2]: 44.8 nM
- Kd (TOM20-Mouse 胞质结构域): 413 nM
